B1: CPEB3 Ribozyme (parent)
chain: GGGGGCCACAGCAGAAGCGUUCACGUCGCGGCCCCUGUCAGAUUCUGGUGAAUCUGCGAAUUCUGCUGU

Variants of: B1
Test: self-cleavage, relative activity (ratio to wild type); higher = more cleavage; co-transcriptional

Variant	self-cleavage
U61A U69C	1.06
U61A U69G	1.02
A60U C66A	0.403
A60U C66G	0.405
A60C C63A	0.405
A59G U62A	0.918
C63U C66G	0.456
U67C G68C	1.01
G65A U69C	1.05
G65A U69A	0.932
A60C U62C	0.398
A60C U62A	0.396
A60G U61C	0.365
U67G U69G	1.11
C63U U67A	0.94
U62A C63U	0.705
U62C G65A	0.479
U62C G65U	0.531
U64G C66A	0.422
A60C	0.359
A60G	0.954
A60U	0.526
C66U U69G	1.06
G65U G68A	0.919
G65U G68U	0.681
A60G U67A	0.944

Variant	self-cleavage
G65C G68C	0.633
G65C G68U	0.406
U61C G68U	0.893
G65A C66A	0.75
C63G U69G	0.921
C66A U69C	1.04
C66A U69G	0.882
U61A C66U	0.83
U64A U69C	1.05
U64A U69G	0.988
U64A U69A	0.964
G58U G65A	0.961
G58U G65U	0.948
U61G U62A	0.871
U61G U62G	0.71
U61G U62C	0.873
U62G C66G	0.442
U62G U64C	0.502
U62G U64A	0.49
A59C A60U	0.378
A60U G68A	0.637
A60U G68C	0.556
A60U G68U	0.66
A59G U64G	0.835
U61C G65A	0.36
G58U U61A	0.929

Variant	self-cleavage
U64A G65C	0.39
U64A G65U	0.827
C63G U67A	0.614
A60G U62A	0.576
A59C C63U	0.633
A59C C63G	0.316
U64G G65U	0.672
C66U U67A	1.02
A60C U61C	0.355
U62A U67G	0.918
C66A G68A	0.87
G65U U69G	0.94
C63U U69C	1.06
A59C U64C	0.586
C66G U67C	0.914
A59C G65A	0.496
A59C G65U	0.342
U61C U69A	0.946
U61G U69A	0.969
U61G U69C	0.697
G68A U69A	1.08
G68A U69C	1.05
G65C U69G	0.862
G65C U69C	1.05
U61A G68A	1.05
C63A U64G	0.783

Variant	self-cleavage
A59U U67G	0.79
U64C C66A	0.435
U61A U62A	0.839
G58U A60C	0.372
U64C G68U	0.803
U64C U69A	0.972
U64C U69G	1
U62A U69C	1.09
A60C C66A	0.288
A59U C63A	0.377
A59C U62A	0.406
G68C U69C	1.1
A60G G68C	0.889
A60G G68A	0.987
U61G C66U	0.659
U62G U67C	0.684
U62G U67G	0.841
A60U U62G	0.679
A60C G65U	0.308
A60C G65A	0.438
G58U U69A	1.02
G58U U69C	1.06
A59G C66U	0.979
C66U G68A	0.976
C66U G68U	0.969
A60G U64G	0.493

Variant	self-cleavage
A60G U64A	0.493
A60G U64C	0.491
A59U C66A	0.503
A59U C66G	0.592
U61C U67G	0.798
U67C U69C	1.1
U67A	0.989
U67C	0.997
U67G	1.02
G58U C66G	0.974
G68A	1.01
G68U	1.01
G68C	1
U61G U64C	0.64
A60U U67G	0.615
U67G G68A	1.08
U61A C63G	0.516
A60U U64A	0.394
A60U U64G	0.333
U64A	0.963
U64G	0.952
U64C	0.941
G58U C63A	0.951
A59G G68C	1.02
A59C C66U	0.727
U64C G65U	0.699

Variant	self-cleavage
A60C G68A	0.454
A60C U64C	0.452
U62A U64G	0.622
A59G U61A	0.916
A59G U61G	0.941
C66G G68C	0.735
C66G G68U	0.932
U61C C63G	0.427
U64A U67C	0.83
C66A U67C	0.925
A59U U69A	0.901
A59U U69G	0.903
U62A C66U	0.737
C63U G68C	0.972
C63U G68U	0.968
U61G U67G	0.808
C63U U64A	0.73
C63U U64C	0.836
G65C C66A	0.788
A59G C63U	1.01
A60G U69A	0.994
A60G U69C	1.03
C63A C66A	0.304
C63A C66G	0.402
C63A C66U	0.619
A60U U61A	0.623

Variant	self-cleavage
U62A G68U	0.964
A60U U69A	0.536
U62A G65U	0.717
U62A G65C	0.413
A59C U61A	0.483
A59C U61G	0.359
U64G U67G	0.769
U64G U67A	0.88
U64G U67C	0.788
G65C U67A	0.589
A60G G65C	0.362
A59G A60C	0.238
U62G G68C	0.866
C63G U64A	0.689
C63G U64C	0.407
A59G G65A	0.895
U61C U62G	0.487
U61C U62A	0.554
C63G G65A	0.461
C63G G65U	0.525
U61A U64G	0.529
U61A U64C	0.585
A60C U69A	0.474
A60C U69G	0.418
U61G G65C	0.449
C63G G68C	0.706

Variant	self-cleavage
A59C U67G	0.772
C63A G65C	0.491
U62C C66G	0.567
U62C C66U	0.654
U64C U67G	0.824
A59G U69C	1.06
U64A G68A	0.99
C63U G65A	0.672
C63U G65U	0.772
C63U G65C	0.419
A59C G68C	0.909
U62G G65U	0.455
A59U G68U	0.924
A59U G68A	0.957
A60U G65C	0.362
U62C C63A	0.753
A59G	0.997
A59U	0.854
A59C	0.788

— the RNAGym collection of RNA variant scans (doi:10.7554/elife.80360)
